Patent publication US20220177589A1 (OXFORD UNIVERSITY INNOVATION, published 2022)
Residue numbers refer to the chain shown, from its start. One block for each binder: values may come before it.

Legend:
[1] = target: full length human BTLA expressed in a Jurkat T cell line (human, UniProt Q7Z6A9 31-289); assay: cell-based or functional assay
[2] = target: chimeric BTLA of humanised-BTLA mice (human extracellular region, murine transmembrane and signaling … (human; mouse, UniProt Q7TSA3 184-306, limits assumed); assay: cell-based or functional assay
Chain of chimeric BTLA of humanised-BTLA mice (human extracellular region, murine transmembrane and signaling … (Q7TSA3 other isoform, or with tags, fused parts or gaps mutant limits assumed): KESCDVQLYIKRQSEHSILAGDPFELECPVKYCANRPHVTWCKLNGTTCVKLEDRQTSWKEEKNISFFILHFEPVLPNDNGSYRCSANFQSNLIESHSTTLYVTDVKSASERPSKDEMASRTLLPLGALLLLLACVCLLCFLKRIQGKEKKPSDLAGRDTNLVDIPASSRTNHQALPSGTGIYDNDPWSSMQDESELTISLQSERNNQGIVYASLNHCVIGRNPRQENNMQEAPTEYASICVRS

T cell reporter (NFkB signaling), % inhibition [1]: 20%
AntiCD3/CD28 (CD4 T cell proliferation) repeat 1, % inhibition [2]: 14%
AntiCD3/CD28 (CD4 T cell proliferation) repeat 2, % inhibition [2]: 17%
AntiCD3/CD28 (CD69+ CD4 T cells) repeat 1, % inhibition [2]: 28%
AntiCD3/CD28 (CD69+ CD4 T cells) repeat 2, % inhibition [2]: 38%
MLR (CD4 T cell proliferation) repeat 1, % inhibition [2]: 23%
MLR (CD4 T cell proliferation) repeat 2, % inhibition [2]: 29%
B1: 7A1 (antibody, IgG1, V domains shown)
VH: QVQLQQSGPELVKPGASVKISCKASGYAFSSSWMNWVKQRPGKGLEWIGRIYPGDGDTNYNGKFKGKATLTADKSSSTAYMQLSSLTSEDSAVYFCARRGYGYLAYWGQGTLVTVSA
VL: DIVMTQSHKFMSTSVGDRVSITCKASQDVSTAVAWYQQKPGQSPKLLIYSASYRYTGVPDRFTGSGSGTDFTFTISSVQAEDLAVYYCQQHYSTPWTFGGGTKLEIK

T cell reporter (NFkB signaling), % inhibition [1]: 9%
AntiCD3/CD28 (CD4 T cell proliferation) repeat 1, % inhibition [2]: 2%
AntiCD3/CD28 (CD4 T cell proliferation) repeat 2, % inhibition [2]: -2%
AntiCD3/CD28 (CD69+ CD4 T cells) repeat 1, % inhibition [2]: 12%
AntiCD3/CD28 (CD69+ CD4 T cells) repeat 2, % inhibition [2]: 19%
MLR (CD4 T cell proliferation) repeat 1, % inhibition [2]: 19%
MLR (CD4 T cell proliferation) repeat 2, % inhibition [2]: 8%
B2: 15C6 (antibody, IgG1, V domains shown)
VH: B1 VH
VL: B1 VL with W96Y

T cell reporter (NFkB signaling), % inhibition [1]: 30%
AntiCD3/CD28 (CD4 T cell proliferation) repeat 1, % inhibition [2]: 27%
AntiCD3/CD28 (CD4 T cell proliferation) repeat 2, % inhibition [2]: 35%
AntiCD3/CD28 (CD69+ CD4 T cells) repeat 1, % inhibition [2]: 52%
AntiCD3/CD28 (CD69+ CD4 T cells) repeat 2, % inhibition [2]: 64%
MLR (CD4 T cell proliferation) repeat 1, % inhibition [2]: 43%
MLR (CD4 T cell proliferation) repeat 2, % inhibition [2]: 35%
B3: 3E8 (antibody, IgG1, V domains shown)
VH: QVQLQQSGAELARPGASVRLSCKASGYTFTSYAIRWVKQRTGQGLEWIGEIYPRSGNTYYNENFKGKATLTADKSSSTAYMELRSLTSEDSAVYFCARSGGASYTMDYWGQGTSVTVSS
VL: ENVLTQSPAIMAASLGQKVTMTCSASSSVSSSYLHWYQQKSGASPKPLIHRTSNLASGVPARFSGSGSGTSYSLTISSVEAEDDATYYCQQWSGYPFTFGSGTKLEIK

T cell reporter (NFkB signaling), % inhibition [1]: 21%
AntiCD3/CD28 (CD4 T cell proliferation) repeat 1, % inhibition [2]: 9%
AntiCD3/CD28 (CD4 T cell proliferation) repeat 2, % inhibition [2]: 16%
AntiCD3/CD28 (CD69+ CD4 T cells) repeat 1, % inhibition [2]: 13%
AntiCD3/CD28 (CD69+ CD4 T cells) repeat 2, % inhibition [2]: 20%
MLR (CD4 T cell proliferation) repeat 1, % inhibition [2]: 7%
MLR (CD4 T cell proliferation) repeat 2, % inhibition [2]: 13%
B4: 15B6 (antibody, IgG1, V domains shown)
VH: QVQLQQPGAELVKPGASVKLSCKASGYTFTSYWMHWVKQRPGQGLEWIGMIHPNSGSTNYNEKFKSKATLTVDKSSSTAYMQLSSLTSEDSAVYYCARKRGGLGDYWGQGTSVTVSS
VL: DIVLTQSPASLAVSLGQRATISCRASKSVSTSGYSYMHWYQQKPGQPPKLLIYLASNLESGVPARFSGSGSGTDFTLNIHPVEEEDAATYYCQHSRELPYTFGGGTKLEIK

T cell reporter (NFkB signaling), % inhibition [1]: 27%
AntiCD3/CD28 (CD4 T cell proliferation) repeat 1, % inhibition [2]: 8%
AntiCD3/CD28 (CD4 T cell proliferation) repeat 2, % inhibition [2]: 14%
AntiCD3/CD28 (CD69+ CD4 T cells) repeat 1, % inhibition [2]: 24%
AntiCD3/CD28 (CD69+ CD4 T cells) repeat 2, % inhibition [2]: 36%
MLR (CD4 T cell proliferation) repeat 1, % inhibition [2]: 16%
MLR (CD4 T cell proliferation) repeat 2, % inhibition [2]: 25%
B5: 10B1 (antibody, IgG1, V domains shown)
VH: QVQLQQSGAELARPGASVKLSCKASGYTFTSYGISWVKQRTGQGLEWIGEIYPRSGNTYYNEKFKGKATLTADKSSSTAYMELRSLTSEDSAVYFCARNYGSSYPFAYWGQGTLVTVSA
VL: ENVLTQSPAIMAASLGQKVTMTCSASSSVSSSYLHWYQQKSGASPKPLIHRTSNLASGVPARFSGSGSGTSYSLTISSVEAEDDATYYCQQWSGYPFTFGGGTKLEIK

T cell reporter (NFkB signaling), % inhibition [1]: 25%
AntiCD3/CD28 (CD4 T cell proliferation) repeat 1, % inhibition [2]: 14%
AntiCD3/CD28 (CD4 T cell proliferation) repeat 2, % inhibition [2]: 22%
AntiCD3/CD28 (CD69+ CD4 T cells) repeat 1, % inhibition [2]: 43%
AntiCD3/CD28 (CD69+ CD4 T cells) repeat 2, % inhibition [2]: 52%
MLR (CD4 T cell proliferation) repeat 1, % inhibition [2]: 10%
MLR (CD4 T cell proliferation) repeat 2, % inhibition [2]: 17%
B6: 4H4 (antibody, IgG1, V domains shown)
VH: B5 VH with N99R, Y100R, S102A, S103G, Y104D, P105G, A107D, L114T, V115L, A119S
VL: DIQMTQTTSSLSASLGDRVTISCSASQGISNYLNWYQQKPDGTVKLLIYYTSSLHSGVPSRFSGSGSGTDYSLTISNLEPEDIATYYCQQYSKLPFTFGSGTKLEIK

T cell reporter (NFkB signaling), % inhibition [1]: 23%
AntiCD3/CD28 (CD4 T cell proliferation) repeat 1, % inhibition [2]: 14%
AntiCD3/CD28 (CD4 T cell proliferation) repeat 2, % inhibition [2]: 18%
AntiCD3/CD28 (CD69+ CD4 T cells) repeat 1, % inhibition [2]: 47%
AntiCD3/CD28 (CD69+ CD4 T cells) repeat 2, % inhibition [2]: 41%
MLR (CD4 T cell proliferation) repeat 1, % inhibition [2]: 33%
MLR (CD4 T cell proliferation) repeat 2, % inhibition [2]: 30%
B7: 4B1 (antibody, IgG1, V domains shown)
VH: QVQLQQSGAELARPGASVRLSCKASGYTFTSYGLIWLKQRTGQGLEWIGEIYPRSGSTYYNEWFKGKATLTADKSSNTAFMELRSLTSEDSAVYFCARRRGTGDGFDYWGQGTILTVSS
VL: B6 VL with S92I, K93E

T cell reporter (NFkB signaling), % inhibition [1]: 24%
AntiCD3/CD28 (CD4 T cell proliferation) repeat 1, % inhibition [2]: 20%
AntiCD3/CD28 (CD4 T cell proliferation) repeat 2, % inhibition [2]: 4%
AntiCD3/CD28 (CD69+ CD4 T cells) repeat 1, % inhibition [2]: 51%
AntiCD3/CD28 (CD69+ CD4 T cells) repeat 2, % inhibition [2]: 47%
MLR (CD4 T cell proliferation) repeat 1, % inhibition [2]: 33%
MLR (CD4 T cell proliferation) repeat 2, % inhibition [2]: 23%
B8: 8B4 (antibody, IgG1, V domains shown)
VH: QVQLQQSGAELARPGASVKLPCKASGYTFTSYGISWVKQRTGQGLEWIGEIYPRSGTTYYNEKFKGKATLTADKSSSTAYMELRSLTSEDSAVYFCARRISSGSGVDYWGQGTTLTVSS
VL: B6 VL with K93E, F96W, S100G
